Measured values reported in patent US20260306676A1, “FLUORESCEIN-LABELED NERVE TARGETING PEPTIDE FORMULATIONS AND RELATED METHODS” (ALUME BIOSCIENCES, INC., priority 2023, published 2026).
≈ marks a conversion by molar mass, not a printed value.

Assays:
[1] = Influence of pH on solubility and stability of ALM-488; type: physicochemical
Experimental: To understand pH-stability relationships, solutions of the ALM-488, HCl salt were prepared at ~1 mg/mL in 50 mM sodium citrate (pH 4-6) or sodium phosphate buffer (pH 7-8) solutions. […] All mixtures were filtered through a 0.45 μm PVDF syringe filter to remove undissolved solid, prior to storage. The filtered solution pH values were measured, and the samples were analyzed by HPLC using the HPLC method conditions of Table 3. Table lists the measured concentrations of ALM-488 (after filtration) as well as the measured solution pH values.
The solutions were then transferred into HPLC sample vials and were stored at 5° C., room temperature (22-23° C.) and 40° C.
Table 5 below summarizes the measured concentrations of intact ALM-488 peptide quantified relative to a standard solution, as well as the area % of the main peptide peaks as measured using the HPLC analysis method of Table 3. FIG. 9 is an overlay of representative chromatograms of the ALM-488 solutions at different solution pH values stored at 40° C. for 24 h. […] At higher pH values, the impurity at RRT ~0.96 appeared to grow during storage.

[2] = Influence of storage temperature on stability of ALM-488 solution (HPLC); type: physicochemical; conditions: 50 mg/mL in sterile water
Experimental: To evaluate whether the ALM-488, HCl salt can be supplied in the form of a concentrated frozen solution, 50 mg/mL solutions of the HCl salt were prepared in water and evaluated for storage stability at different temperatures. The solutions having pH of 1.87 were prepared in sterile water for injection, and these solutions were stored at different storage temperatures (−20° C., 5° C. and 40° C.) and were analyzed using the HPLC method of Table 3 at different time periods.

[3] = Drug product assay of lyophiles by HPLC; type: physicochemical; conditions: Pre-Lyo., starting peptide
Experimental: The content and purity of the ALM-488 peptide in the lyophilized product vials for Samples 10-1, 10-2 and 10-3 were evaluated using the HPLC method conditions of Table 3. […] The resulting solution was then transferred to a 200 mL volumetric flask. Each vial was rinsed well with water, and the rinses were transferred to the flask prior to volume make-up to 200 mL with water. The resulting solutions (~0.25 mg/mL of ALM488) were individually injected into the HPLC system and were analyzed as described above. The lyophilization process appeared to cause a small increase in the levels of some impurities.

[4] = Effect of organic amine compounds on solubility of ALM-488 (pH titration)
Experimental: To assess formulations that could be used to prepare ~50 mg/vial samples of ALM-488, and samples having an ALM-488 concentration of ~50 mg/mL, formulations having different organic amine compounds were studied. Each of these samples included (i) ALM-488 hydrochloride, (ii) a suitable base appropriate for a freeze-dried formulation (to adjust solution pH to optimal 7-8, as described in Examples 4 and 5), and (iii) at least one organic amine compound functioning as a pH-adjusting agent, bulking agent and/or a tonicity-adjusting agent. […] 55-60 mg/mL solutions of ALM-488 (pH 1.8-1.9) were titrated by gradual addition of 750 mM arginine, 1 M Tris, or 1 M meglumine.

[5] = After 24 hours at 40° C., Citrate buffer 50 mM, pH 3.95
[6] = After 24 hours at 40° C., Citrate buffer 50 mM, pH 4.97
[7] = After 24 hours at 40° C., Citrate buffer 50 mM, pH 6.01
[8] = After 24 hours at 40° C., Phos. buffer 50 mM, pH 7.04
[9] = After 24 hours at 40° C., Phos. buffer 50 mM, pH 8.18
[10] = After 24 hours at 40° C., Water
[11] = Initial, Citrate buffer 50 mM, pH 3.95
[12] = Initial, Citrate buffer 50 mM, pH 4.97
[13] = Initial, Phos. buffer 50 mM, pH 7.04
[14] = Initial, Phos. buffer 50 mM, pH 8.18

In the case of `CC(C)[C@H](NC(=O)[C@H](Cc1ccc(O)cc1)NCCCCC(=O)[C@H](Cc1ccc(O)cc1)NC(=O)[C@@H]1CCCN1C(=O)[C@H](CCC(=O)O)NC(=O)[C@H](CCC(=O)O)NC(=O)[C@H](Cc1c[nH]c2ccccc12)NC(=O)[C@@H]1CCCN1C(=O)[C@@H](NC(=O)[C@H](CCC(N)=O)NC(=O)c1ccc2c(c1)C(=O)OC21c2ccc(O)cc2Oc2cc(O)ccc21)C(C)C)C(=O)N[C@H](C(=O)N[C@@H](CCCCN)C(=O)N[C@@H](CCCCN)C(=O)N[C@@H](CO)C(=O)N[C@@H](CO)C(=O)NCC(=O)NCC(N)=O)C(C)C` [ALM-488, Bevonescein], the solubility ([1]; 50 mm citrate buffer, aqueous buffer, citrate buffers (pH 4-6), read-out: solubility) is reported as < 1000 µg/mL, the ALM488 concentration [1, 5] is reported as 0.87 mg/mL and the “HPLC purity, area %” value [1, 5] is reported as 99.5%. For the same compound, the ALM488 concentration [1, 6] was 0.18 mg/mL, the “HPLC purity, area %” value [1, 6] was 99.8% and the ALM488 concentration [1, 7] was 0.60 mg/mL. The “HPLC purity, area %” value [1, 7] was 99.8%, the ALM488 concentration [1, 8] was 0.95 mg/mL and the “HPLC purity, area %” value [1, 8] was 99.8%. The ALM488 concentration [1, 9] was 0.96 mg/mL, the “HPLC purity, area %” value [1, 9] was 99.5% and the ALM488 concentration [1, 10] was 0.86 mg/mL. The “HPLC purity, area %” value [1, 10] was 99.3%, the “Measured solution pH” value ([1]; Citrate buffer 50 mM (pH 3.95)) was 3.85 and the solubility ([1]; Citrate buffer 50 mM (pH 3.95), read-out: Measured concentration in filtered solution) was 830 µg/mL (≈ 351 µM). The “Measured solution pH” value ([1]; Citrate buffer 50 mM (pH 4.97)) was 4.89, the solubility ([1]; Citrate buffer 50 mM (pH 4.97), read-out: Measured concentration in filtered solution) was 180 µg/mL (≈ 76.1 µM) and the “Measured solution pH” value ([1]; Citrate buffer 50 mM (pH 6.01)) was 5.91. For the same compound, the solubility ([1]; Citrate buffer 50 mM (pH 6.01), read-out: Measured concentration in filtered solution) was 610 µg/mL (≈ 258 µM), the ALM488 concentration [1, 11] was 0.83 mg/mL and the “HPLC purity, area %” value [1, 11] was 99.3%. For the same compound, the ALM488 concentration [1, 12] was 0.18 mg/mL, the “HPLC purity, area %” value [1, 12] was 99.8% and the ALM488 concentration ([1]; Initial, Citrate buffer 50 mM, pH 6.01) was 0.61 mg/mL. The ALM488 concentration [1, 13] was 0.94 mg/mL, the “HPLC purity, area %” value [1, 13] was 99.7% and the ALM488 concentration [1, 14] was 0.95 mg/mL. The “HPLC purity, area %” value [1, 14] was 99.7%, the ALM488 concentration ([1]; Initial, Water) was 0.86 mg/mL and the “HPLC purity, area %” value ([1]; Initial, Water) was 99.8%. The “Measured solution pH” value ([1]; Phos. buffer 50 mM (pH 7.04)) was 6.94, the “Measured solution pH” value ([1]; Phos. buffer 50 mM (pH 8.18)) was 7.90 and the “Measured solution pH” value ([1]; Water) was 3.46. For the same compound, the solubility ([1]; aqueous buffer, pH 5, citrate buffer, read-out: solubility near isoelectric pH) was ~200 µg/mL (≈ 84.5 µM), the solution stability ([1]; neutral pH values) was “adequate solution stability” and the solubility ([1]; phosphate buffer 50 mm, Phos. buffer 50 mM (pH 7.04), read-out: Measured concentration in filtered solution) was 940 µg/mL (≈ 397 µM). For the same compound, the solubility ([1]; phosphate buffer 50 mm, Phos. buffer 50 mM (pH 8.18), read-out: Measured concentration in filtered solution) was 950 µg/mL (≈ 401 µM), the “impurity at RRT ~1.4” value ([1]; water (pH 3.46), 40° C. for 24 h) was ~ 0.5 area % and the dissolution ([1]; water (pH 3.5) and phosphate buffer (pH 7-8), ~1 mg/mL) was “rapid and complete”. For the same compound, the solubility ([1]; water, read-out: Measured concentration in filtered solution) was 860 µg/mL (≈ 363 µM), the ALM-488 main peak ([2]; 7 Days (5° C.)) was 99.61 AREA % and the “impurity RRT~0.73” value ([2]; 7 Days (5° C.)) was 0.07 AREA %. For the same compound, the “impurity RRT~0.97” value ([2]; 7 Days (5° C.)) was 0.15 AREA %, the “impurity RRT~1.06” value ([2]; 7 Days (5° C.)) was 0.14 AREA % and the “impurity RRT~1.38” value ([2]; 7 Days (5° C.)) was 0.05 AREA %. The ALM-488 main peak ([2]; 7 Days (40° C.)) was 97.96 AREA %, the “impurity RRT~0.73” value ([2]; 7 Days (40° C.)) was 0.05 AREA % and the “impurity RRT~0.93” value ([2]; 7 Days (40° C.)) was 0.09 AREA %. The “impurity RRT~0.97” value ([2]; 7 Days (40° C.)) was 0.07 AREA %, the “impurity RRT~1.06” value ([2]; 7 Days (40° C.)) was 1.43 AREA % and the “impurity RRT~1.18” value ([2]; 7 Days (40° C.)) was 0.07 AREA %. The “impurity RRT~1.38” value ([2]; 7 Days (40° C.)) was 0.27 AREA %, the ALM-488 main peak ([2]; 7 Days (−20° C.)) was 99.56 AREA % and the “impurity RRT~0.73” value ([2]; 7 Days (−20° C.)) was 0.07 AREA %. The “impurity RRT~0.94” value ([2]; 7 Days (−20° C.)) was 0.03 AREA %, the “impurity RRT~0.97” value ([2]; 7 Days (−20° C.)) was 0.16 AREA % and the “impurity RRT~1.06” value ([2]; 7 Days (−20° C.)) was 0.15 AREA %. For the same compound, the “impurity RRT~1.38” value ([2]; 7 Days (−20° C.)) was 0.04 AREA %, the ALM-488 main peak ([2]; Initial (RT)) was 99.64 AREA % and the “impurity RRT~0.94” value ([2]; Initial (RT)) was 0.09 AREA %. The “impurity RRT~0.97” value ([2]; Initial (RT)) was 0.23 AREA %, the “impurity RRT~1.06” value ([2]; Initial (RT)) was 0.09 AREA % and the ALM-488 main peak [3] was 99.69 Area %. The “impurity RRT~0.97” value [3] was 0.14 Area %, the “impurity RRT~1.06” value [3] was 0.11 Area % and the “impurity RRT~1.38” value [3] was 0.02 Area %. The solubility [4] was > 50000 µg/mL.
